Assay results as given in the supplement of paper PMC10567573.

B1: KCNA3 (parent)
chain: GERVVINISGLRFETQLKTLCQFP
B2: TRAF3IP2 (parent)
chain: PGQPLPGASVRGLHPVQKVILNYP

Variants of: B1
Assay: protein stability index of a GFP-peptide fusion (GPS, HEK-293T) (PSI 1-6); higher = more stable
Details: c terminus: a fixed tail appended
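Note: lentivirally expressed fusions sorted by FACS into six bins by GFP to DsRed ratio, PSI derived from sequencing read proportions per bin multiplied by bin number.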

| Variant | protein stability index |
| --- | --- |
| GERVVINISGLRFENQLKTLCQFP | 3.66 |
| GERVVINISGLRFEYQLKTLCQFP | 2.63 |
| GERVVINISGLRFERQLKTLCQFP | 2.69 |
| GERVVINISGLRFELQLKTLCQFP | 3.24 |
| GERVVINISGLRFEEQLKTLCQFP | 2.62 |
| GERVVINISGLRFEQQLKTLCQFP | 2.31 |
| GERVVINISGLRFEGQLKTLCQFP | 4.2 |
| GERVVINISGLRFETQLKTLCMFP | 3.99 |
| GERVVINISGLRFETQLKTLCTFP | 2.59 |
| GERVVINISGLRFETQLKTLCHFP | 2.26 |
| GERVVINISGLRFETQLKTLCDFP | 3.65 |
| GERVVINISGLRFETQLKTLCCFP | 4.8 |
| GERVVINISGLRFETQLKTLCAFP | 1.9 |
| GERVVINISGLRFETQLKTLCLFP | 1.84 |
| GERVVINISGLRFETQLKTLCGFP | 2.94 |
| GERVVINISGLRFETQLKTLCEFP | 2.39 |
| GERVVINISGLRFETQLKTLCNFP | 2.1 |
| GERVVINISGLRFETQLKTLCQEP | 2.2 |
| GERVVINISGLRFETQLKTLCQCP | 3.65 |
| GERVVINISGLRFETQLKTLCQRP | 1.92 |
| GERVVINISGLRFETQLKTLCQDP | 2.25 |
| GERVVINISGLRFETQLKTLCQKP | 1.59 |
| GERVVINISGLRFETQLKTLCQSP | 2.88 |
| GERVVINISGLRFETQLKTLCQLP | 1.95 |

| Variant | protein stability index |
| --- | --- |
| GERVVINISGLRFETQLKTLCQHP | 3.14 |
| GERVVINISGLRFETQLKTLCQAP | 2.41 |
| GERVVINISGLRFETQLKTLCQIP | 2.48 |
| GERVVINISGLRFETQLKTLCQTP | 1.36 |
| GERVVINISGLRFETQLKTLCQQP | 1.94 |
| GERVVINISGLRFETQLKTLCQNP | 1.52 |
| GERVVINISGLRFETQLETLCQFP | 3.06 |
| GERVVINISGLRFETQLDTLCQFP | 3.02 |
| GERVVINISGLRFETQLATLCQFP | 3.07 |
| GERVVINISGLRFETQLMTLCQFP | 3.17 |
| GERVVINISGLRFETQLSTLCQFP | 1.78 |
| GERVVINISGLRFETQLCTLCQFP | 1.92 |
| GERVVINISGLRFETQLRTLCQFP | 2.29 |
| GERVVINISGLRFETQLQTLCQFP | 1.87 |
| GERVVINISGLRFETQLITLCQFP | 3.07 |
| GERVVINISGLRFETQLKTLCQFK | 1.44 |
| GERVVINISGLRFETQLKTLCQFY | 2.26 |
| GERVVINISGLRFETQLKTLCQFC | 2.4 |
| GERVVINISGLRFETQLKTLCQFN | 3.07 |
| GERVVINISGLRFETQLKTLCQFF | 3.52 |
| GERVVINISGLRFETQLKTLCQFL | 2.2 |
| GERVVINISGLRFETQLKTLCQFG | 2.75 |
| GERVVINISGLRFETQLKTLCQFA | 2.47 |
| GERVVINISGLRFETQLKTLCQFV | 1.04 |

| Variant | protein stability index |
| --- | --- |
| GERVVINISGLRFETQLKTLCQFI | 2 |
| GERVVINISGLRFETQLKTLCQFE | 4.68 |
| GERVVINISGLRFETQLKTLCQFW | 1.69 |
| GERVVINISGLRFETQLKTKCQFP | 3.74 |
| GERVVINISGLRFETQLKTACQFP | 2.24 |
| GERVVINISGLRFETQLKTICQFP | 1.56 |
| GERVVINISGLRFETQLKTDCQFP | 1.22 |
| GERVVINISGLRFETQLKTGCQFP | 1.95 |
| GERVVINISGLRFETQLKTMCQFP | 2.22 |
| GERVVINISGLRFETQLKTSCQFP | 2.34 |
| GERVVINISGLRFETQLKTNCQFP | 2.33 |
| GERVVINISGLRFETQLKTQCQFP | 1.2 |
| GERVVINISGLRFETQLKTCCQFP | 1.39 |
| GERVVINISGLRFETQLKTRCQFP | 2.84 |
| GERVVINISGLRFETQHKTLCQFP | 3.03 |
| GERVVINISGLRFETQAKTLCQFP | 2.88 |
| GERVVINISGLRFETQTKTLCQFP | 2.85 |
| GERVVINISGLRFETQRKTLCQFP | 1.87 |
| GERVVINISGLRFETQDKTLCQFP | 2.06 |
| GERVVINISGLRFETQPKTLCQFP | 2.58 |
| GERVVINISGLRFETQIKTLCQFP | 2.92 |
| GERVVINISGLRFETQVKTLCQFP | 2.92 |
| GERVVINISGLRFETQKKTLCQFP | 1.42 |
| GERVVINISGLRFETQNKTLCQFP | 2.04 |

| Variant | protein stability index |
| --- | --- |
| GERVVINISGLRFETQEKTLCQFP | 1.87 |
| GERVVINISGLRFNTQLKTLCQFP | 2.08 |
| GERVVINISGLRFPTQLKTLCQFP | 1 |
| GERVVINISGLRFTTQLKTLCQFP | 1.83 |
| GERVVINISGLRFKTQLKTLCQFP | 2.42 |
| GERVVINISGLRFVTQLKTLCQFP | 3 |
| GERVVINISGLRFGTQLKTLCQFP | 2.74 |
| GERVVINISGLRFMTQLKTLCQFP | 3.03 |
| GERVVINISGLRFRTQLKTLCQFP | 1.89 |
| GERVVINISGLRFHTQLKTLCQFP | 3.28 |
| GERVVINISGLRFQTQLKTLCQFP | 1.04 |
| GERVVINISGLRFDTQLKTLCQFP | 2.37 |
| GERVVINISGLRFETQLKTLVQFP | 1.81 |
| GERVVINISGLRFETQLKTLGQFP | 1 |
| GERVVINISGLRFETQLKTLPQFP | 3.67 |
| GERVVINISGLRFETQLKTLDQFP | 2.14 |
| GERVVINISGLRFETQLKTLMQFP | 1.12 |
| GERVVINISGLRFETQLKTLTQFP | 2.68 |
| GERVVINISGLRFETQLKTLNQFP | 1.37 |
| GERVVINISGLRFETQLKTLFQFP | 2.95 |
| GERVVINISGLRFETQLKTLIQFP | 3.26 |
| GERVVINISGLRFETQLKTLQQFP | 2.57 |
| GERVVINISGLRFETQLKTLRQFP | 3.08 |
| GERVVINISGLRFETQLKTLHQFP | 1.91 |

| Variant | protein stability index |
| --- | --- |
| GERVVINISGLRVETQLKTLCQFP | 2.58 |
| GERVVINISGLRFETQLKMLCQFP | 3.15 |
| GERVVINISGLRFETQLKNLCQFP | 1.34 |
| GERVVINISGLRFETQLKKLCQFP | 1.45 |
| GERVVINISGLRFETQLKFLCQFP | 1.76 |
| GERVVINISGLRFETQLKHLCQFP | 1.78 |
| GERVVINISGLRFETQLKALCQFP | 1.87 |
| GERVVINISGLRFETQLKPLCQFP | 1.49 |
| GERVVINISGLRFETQLKRLCQFP | 1.32 |
| GERVVINISGLRFETQLKELCQFP | 2 |
| GERVVINISGLRFETQLKQLCQFP | 1.28 |
| GERVVINISGLRFETQLKCLCQFP | 3.24 |
| GERVVINISGLRFETNLKTLCQFP | 1.04 |
| GERVVINISGLRFETDLKTLCQFP | 1.87 |
| GERVVINISGLRFETMLKTLCQFP | 4.05 |
| GERVVINISGLRFETHLKTLCQFP | 2.53 |
| GERVVINISGLRFETFLKTLCQFP | 2.47 |
| GERVVINISGLRFETGLKTLCQFP | 2.49 |
| GERVVINISGLRFETYLKTLCQFP | 2.02 |
| GERVVINISGLRFETTLKTLCQFP | 1.39 |
| GERVVINISGLRFETSLKTLCQFP | 2.69 |
| GERVVINISGLRFETPLKTLCQFP | 2 |

Variants of: B2
Assay: as above
Details: c terminus: a fixed tail appended

| Variant | protein stability index |
| --- | --- |
| NGQPLPGASVRGLHPVQKVILNYP | 3.63 |
| LGQPLPGASVRGLHPVQKVILNYP | 2.78 |
| IGQPLPGASVRGLHPVQKVILNYP | 2.99 |
| YGQPLPGASVRGLHPVQKVILNYP | 2.49 |
| TGQPLPGASVRGLHPVQKVILNYP | 2.65 |
| FGQPLPGASVRGLHPVQKVILNYP | 3 |
| SGQPLPGASVRGLHPVQKVILNYP | 2.62 |
| WGQPLPGASVRGLHPVQKVILNYP | 2.45 |
| EGQPLPGASVRGLHPVQKVILNYP | 3.31 |
| HGQPLPGASVRGLHPVQKVILNYP | 3.31 |
| GGQPLPGASVRGLHPVQKVILNYP | 2.86 |
| VGQPLPGASVRGLHPVQKVILNYP | 3.25 |
| QGQPLPGASVRGLHPVQKVILNYP | 3.47 |
| KGQPLPGASVRGLHPVQKVILNYP | 3.02 |
| DGQPLPGASVRGLHPVQKVILNYP | 2.97 |
| CGQPLPGASVRGLHPVQKVILNYP | 1.73 |
| MGQPLPGASVRGLHPVQKVILNYP | 3 |
| PGPPLPGASVRGLHPVQKVILNYP | 3.57 |
| PGFPLPGASVRGLHPVQKVILNYP | 2.42 |
| PGYPLPGASVRGLHPVQKVILNYP | 2.41 |
| PGCPLPGASVRGLHPVQKVILNYP | 2.71 |
| PGGPLPGASVRGLHPVQKVILNYP | 4.09 |
| PGRPLPGASVRGLHPVQKVILNYP | 3.11 |
| PGDPLPGASVRGLHPVQKVILNYP | 3.15 |

| Variant | protein stability index |
| --- | --- |
| PGMPLPGASVRGLHPVQKVILNYP | 3.34 |
| PGNPLPGASVRGLHPVQKVILNYP | 3.28 |
| PGHPLPGASVRGLHPVQKVILNYP | 2.72 |
| PGVPLPGASVRGLHPVQKVILNYP | 3.42 |
| PGWPLPGASVRGLHPVQKVILNYP | 2.31 |
| PGEPLPGASVRGLHPVQKVILNYP | 3.65 |
| PGAPLPGASVRGLHPVQKVILNYP | 3.28 |
| PGSPLPGASVRGLHPVQKVILNYP | 3.97 |
| PGIPLPGASVRGLHPVQKVILNYP | 2.88 |
| PGKPLPGASVRGLHPVQKVILNYP | 3.09 |
| PGTPLPGASVRGLHPVQKVILNYP | 3.12 |
| PGLPLPGASVRGLHPVQKVILNYP | 2.96 |
| PGQELPGASVRGLHPVQKVILNYP | 3.52 |
| PGQGLPGASVRGLHPVQKVILNYP | 2.22 |
| PGQKLPGASVRGLHPVQKVILNYP | 2.69 |
| PGQMLPGASVRGLHPVQKVILNYP | 3 |
| PGQHLPGASVRGLHPVQKVILNYP | 3.08 |
| PGQTLPGASVRGLHPVQKVILNYP | 4.15 |
| PGQFLPGASVRGLHPVQKVILNYP | 2.92 |
| PGQNLPGASVRGLHPVQKVILNYP | 2.06 |
| PGQQLPGASVRGLHPVQKVILNYP | 3.29 |
| PGQLLPGASVRGLHPVQKVILNYP | 2.66 |
| PGQILPGASVRGLHPVQKVILNYP | 2.41 |
| PGQRLPGASVRGLHPVQKVILNYP | 3.21 |

| Variant | protein stability index |
| --- | --- |
| PGQALPGASVRGLHPVQKVILNYP | 3.17 |
| PGQDLPGASVRGLHPVQKVILNYP | 3.03 |
| PGQCLPGASVRGLHPVQKVILNYP | 2.73 |
| PGQSLPGASVRGLHPVQKVILNYP | 2.6 |
| PSQPLPGASVRGLHPVQKVILNYP | 2.81 |
| PDQPLPGASVRGLHPVQKVILNYP | 4.21 |
| PRQPLPGASVRGLHPVQKVILNYP | 3.39 |
| PHQPLPGASVRGLHPVQKVILNYP | 2.06 |
| PLQPLPGASVRGLHPVQKVILNYP | 2.23 |
| PIQPLPGASVRGLHPVQKVILNYP | 2.62 |
| PWQPLPGASVRGLHPVQKVILNYP | 2.15 |
| PQQPLPGASVRGLHPVQKVILNYP | 2.85 |
| PVQPLPGASVRGLHPVQKVILNYP | 3.21 |
| PEQPLPGASVRGLHPVQKVILNYP | 3.79 |
| PKQPLPGASVRGLHPVQKVILNYP | 2.58 |
| PMQPLPGASVRGLHPVQKVILNYP | 2.44 |
| PPQPLPGASVRGLHPVQKVILNYP | 3.35 |
| PNQPLPGASVRGLHPVQKVILNYP | 2.65 |
| PCQPLPGASVRGLHPVQKVILNYP | 2.22 |
| PAQPLPGASVRGLHPVQKVILNYP | 2.89 |
| PTQPLPGASVRGLHPVQKVILNYP | 3.21 |
| PFQPLPGASVRGLHPVQKVILNYP | 2.92 |
